The target of assay [1] is Ab-WbjB (UDP-N-acetylglucosamine 4,6-dehydratase, WbjB) of Acinetobacter baumannii D1279779 (Acinetobacter baumannii strain D1279779). In words: SEC; some laboratory samples of Ab-WbjB, presumed by the authors to hold less NADP+; dimer form in solution (example in S1 Fig). Background: In gel filtration, larger molecules generally elute earlier.
For assay [2] the target is unchanged. Briefly: crystal structure; Se-Met Ab-WbjB, space group P212121, six chains in the asymmetric unit, NADP+ bound to each chain, 2.65 Å.
The target is the same in assay [3]. Briefly: SEC; Superdex 200 10/300 GL, Buffer A (50 mM HEPES pH 7.5, 200 mM NaCl, 5% v/v glycerol), 0.5 mL/min; hexamer.

One substance from paper PMC5774825 can be followed below.

For the substance “Ab-WbjB (UDP-N-acetylglucosamine 4,6-dehydratase, WbjB) of Acinetobacter baumannii D1279779 (enzyme)”, the stoichiometry N in assay [1] was 2; in assay [2] it was 6; in assay [3] it was 6.

As usually defined, the stoichiometry N is the number of molecules, sites or subunits per partner or assembly.
